The target in one assay is T1, PKC-epsilon (Homo sapiens, UniProt Q02156).
T1 construct: purchased Calbiochem
T1 sequence (Q02156 1-737): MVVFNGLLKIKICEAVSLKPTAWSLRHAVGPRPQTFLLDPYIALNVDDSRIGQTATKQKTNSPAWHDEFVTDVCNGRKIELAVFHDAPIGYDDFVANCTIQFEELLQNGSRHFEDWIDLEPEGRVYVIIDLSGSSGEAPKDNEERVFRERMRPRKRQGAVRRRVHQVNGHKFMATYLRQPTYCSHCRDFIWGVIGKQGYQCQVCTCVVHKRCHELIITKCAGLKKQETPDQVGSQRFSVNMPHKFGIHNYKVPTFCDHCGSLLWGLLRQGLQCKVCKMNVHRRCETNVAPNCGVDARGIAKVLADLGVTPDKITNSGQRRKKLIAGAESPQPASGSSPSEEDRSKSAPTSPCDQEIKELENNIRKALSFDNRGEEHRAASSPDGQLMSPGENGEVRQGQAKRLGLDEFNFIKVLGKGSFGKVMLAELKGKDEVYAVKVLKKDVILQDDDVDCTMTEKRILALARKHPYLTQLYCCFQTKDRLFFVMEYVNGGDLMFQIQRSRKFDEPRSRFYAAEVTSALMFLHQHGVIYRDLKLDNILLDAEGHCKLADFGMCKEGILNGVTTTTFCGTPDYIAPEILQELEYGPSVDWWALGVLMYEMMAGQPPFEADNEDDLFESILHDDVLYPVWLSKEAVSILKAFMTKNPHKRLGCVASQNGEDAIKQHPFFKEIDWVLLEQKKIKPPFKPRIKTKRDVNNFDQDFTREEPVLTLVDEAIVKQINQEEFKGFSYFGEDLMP
The assay is described as follows: In vitro kinase assay: peptide phosphorylation by PKC-epsilon. In kind it is biochemical. The conditions noted are these: for PKC-epsilon phosphorylation: normalized to best substrate; for phosphorylation by PKC epsilon: peptide concentration 1 uM. The method in brief: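 Active PKC-epsilon (5-20 ng per well) phosphorylated biotinylated peptides in duplicate at 30° C. for about 10 minutes. The PKC buffer was 100 mM HEPES, 0.05% Triton-X100, 1 mM CaCl2, 20 mM MgCl2, 0.2 mg/ml phosphatidyl serine and PMA 100 ng/ml, with 100 μM ATP including ^32P-gamma ATP. Peptides were captured on streptavidin plates, washed, and counted by scintillation, with stoichiometry kept below 5%.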

The target of another assay is T2, PKC-alpha (Homo sapiens, UniProt P17252).
T2 construct: purchased Calbiochem
The assay is described as follows: In vitro kinase assay: peptide phosphorylation by PKC-alpha. It is filed as biochemical. As to conditions: for PKC alpha phosphorylation: normalized to best substrate. The gist of the method: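 Purified active human PKC-alpha, 5-20 ng per well, phosphorylated biotinylated peptides in duplicate wells with 100 μM ATP including 1 uCi/well of ^32P-gamma ATP. The buffer was 100 mM HEPES, 0.05% Triton-X100, 1 mM CaCl2, 20 mM MgCl2, 0.2 mg/ml phosphatidyl serine and PMA 100 ng/ml. Reactions ran at 30° C., usually for 10 minutes, keeping stoichiometry under 5%. They were stopped with ATP/EDTA, captured on streptavidin plates, washed, and counted by scintillation.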

For the substance 81 (KRERKTSSKSSVRKRR) [compound 81], the PKC-epsilon phosphorylation with PKC-epsilon is 59%. Besides, the PKC alpha phosphorylation with PKC-alpha came to 62%.

In the case of 87 (RQGKRKTSIKRDTVNPL) [compound 87], the PKC-epsilon phosphorylation with PKC-epsilon turned out to be 31%. In the assay with PKC-alpha, the PKC alpha phosphorylation amounted to 46%.

For 88 (KKPFKLSGLSFKRNRKE) [compound 88], the PKC-epsilon phosphorylation with PKC-epsilon is reported as 44%. Besides, in the assay with PKC-alpha, the PKC alpha phosphorylation is listed as 48%.

91 (VHYTSKDTLRKRHYWR) [compound 91]: the PKC-epsilon phosphorylation in the assay with PKC-epsilon was 49%. Besides, in the assay with PKC-alpha, the PKC alpha phosphorylation amounted to 60%.

Consider 97 (KKRSSKKEASMKKVVRP) [compound 97], for which the PKC-epsilon phosphorylation in the assay with PKC-epsilon is recorded as 16%. The PKC alpha phosphorylation with PKC-alpha turned out to be 37%.

98 (AGPLRKSSLKKGGRL) [compound 98]: the PKC-epsilon phosphorylation in the assay with PKC-epsilon stood at 34%. In addition, the PKC alpha phosphorylation in the assay with PKC-alpha is recorded as 25%.

“148 (RELEQLKAEYLERRASRRRA) [compound 148]”: in the assay with PKC-epsilon, the “phosphorylation by PKC epsilon” value worked out at 33. The “phosphorylation by PKC alpha” value with PKC-alpha (peptide concentration 1 uM) amounted to 19; with PKC-alpha (peptide concentration 10 uM), 22.

Consider 149 (RVVQSVKHTKRKSSTVMK) [compound 149], for which the “phosphorylation by PKC epsilon” value with PKC-epsilon is 27. Moreover, the “phosphorylation by PKC alpha” value with PKC-alpha (peptide concentration 1 uM) is 33; in the assay with PKC-alpha (peptide concentration 10 uM), 52.

In the case of “150 (VDPFYEMLAARKKRISVKKK) [compound 150]”, in the assay with PKC-epsilon, the “phosphorylation by PKC epsilon” value worked out at 20. The “phosphorylation by PKC alpha” value in the assay with PKC-alpha (peptide concentration 1 uM) stood at 12; with PKC-alpha (peptide concentration 10 uM), 11.

Consider “151 (PQNSLKASNRKKKRTSFKRK) [compound 151]”, for which the “phosphorylation by PKC epsilon” value with PKC-epsilon was found to be 24. Besides, the “phosphorylation by PKC alpha” value with PKC-alpha (peptide concentration 1 uM) is recorded as 17; with PKC-alpha (peptide concentration 10 uM) it was 16.

As to “152 (DLIEGRKGAQIVKRASLKRG) [compound 152]”, the “phosphorylation by PKC epsilon” value with PKC-epsilon is recorded as 25. For the same substance, the “phosphorylation by PKC alpha” value with PKC-alpha (peptide concentration 1 uM) turned out to be 13; in the assay with PKC-alpha (peptide concentration 10 uM), 12.

As to “153 (TYLLPDKSRQGKRKTSIKRD) [compound 153]”, the “phosphorylation by PKC epsilon” value with PKC-epsilon turned out to be 24. In addition, the “phosphorylation by PKC alpha” value worked out at 17 with PKC-alpha (peptide concentration 1 uM) and 22 with PKC-alpha (peptide concentration 10 uM).
